From patent publication US10899824B2 (Polichem S.A., priority 2016, dated 2021)

What was measured:
HSV-2 MS = test: Post-HSV entry combination (synergy) assay, combination index; type: cell-based; conditions: 0.5 ug/mL
Method: Results obtained in the double curve assay were then analysed in silico in a ComboSyn analysis (CompuSyn for Drug Combinations and for General Dose-Effect Analysis by Ting-Chao Chou Memorial Sloan-Keltering Cancer Center New York, N.Y. and Nick Martin Massachustts Institute of Technology Cambridge, Mass.) to evaluate the potential synergies between IgGA and ACV, through the calculation of Combination Index (CI) and Dose Reduction Index (DRI).
The combination index (CI) according to Chou 2006 (23) indicates nearly additive activity in the range of 0.9-1.1, synergism under 0.9, strong synergism between 0.1 and 0.3 and very strong synergism under 0.1. Values of CI over 1.1 indicate antagonism. […]
The first step in IgGA/FOS combination activity evaluation has been the assessment of drug susceptibility for the two chosen HSV isolates already used for the Example 2. […] Combination index was calculated as in Example 2 to assess the synergism between IgGA and FOS. […]
The first step in IgGA/PCV combination activity evaluation has been the assessment of drug susceptibility for the two chosen HSV isolates (HSV-1 LV and HSV-2 MS). […] Combination index was calculated as in Example 2 to assess the synergism between IgGA and PCV. […]

HSV-2 [1] = test: Post adsorption inhibition of infection (plaque count); type: cell-based; conditions: IgG 100 ug/mL added 30 minutes after infection; 48 h; VERO E6
Method: (§1) Post-adsorption assays have been developed in order to speculate on possible administration of IgGA for the treatment of HSV infection, after the beginning of virus active replication within the host.
(§2) The first step of experimental approaches, involving post-HSV adsorption evaluation of FabA or IgGA, is the infection of VERO E6 cells with a standard amount of HSV not previously treated with the FabA or IgGA.
(§3) FabA or IgGA is added to the infected cells only after 30 minutes from virus infection. The infection is then carried out for 48 h in order to appreciate the HSV lysis plaques on VERO E6 cells. The experimental results have been evaluated by counting the plaques for infected cells receiving (post-HSV infection) FabA or IgGA compared to virus experimental positive control.
(§4) Fabs tested in post-adsorption assays have been used at a concentration of 50 and 200 ug/mL against HSV-1 and HSV-2 tested isolates respectively*.
(§5) IgGs tested in post-adsorption assays have been used at a concentration of 25 and 100 ug/mL against HSV-1 and HSV-2 tested isolates respectively*.

HSV-1 [2] = test: as above; type: cell-based; conditions: IgG 25 ug/mL added 30 minutes after infection; 48 h; VERO E6
Method: as §1, §2, §3, §4, §5

HSV-1 HF strain = test: Emergence of escape mutants under selective pressure; type: cell-based; conditions: selective pressure at 5 and 10 ug/mL; sequential infection rounds
Source text: In order to evaluate the presence of escape virus mutants generated under selective pressure of IgGA, HSV-1 infected VERO-E6 cells have been treated with increasing concentrations of Fab A. More in details, VERO cells have been cultured in T25 flasks in the experimental conditions extensively described in the previous reports (“virus propagation techniques”). Cell monolayers have been then infected by HSV-1 HF strain using 50 pfu/mL of cell free virus. […] […] After three days the infected cell media have been collected and centrifuged in order to use medium centrifuged supernatants for new cell infection rounds. […] Five sequential identical infection rounds have been performed in the presence of the two concentrations of IgGA and control IgG above described. […] In order to test the capability of virus cultured in the constant presence of IgGA to escape from IgGA inhibitory activity the cell free supernatants belonging to the final infections in the presence of IgGA have been incubated 1 h at 37° C. in the presence of high IgGA concentration. After pre-incubation the neutralization mix has been used to infect new VERO-E6 cells.
VERO-E6 monolayers were infected with HSV-1 HF strain using 50 pfu/mL of cell free virus. After virus complete adsorption, the infected cells were treated for three days with subinhibitory concentrations of IgGA, namely 0.2 mg/ml and 1 mg/ml. […]

HSV-2 tested isolates = test: Neutralising activity against clinical isolates (pre-incubation with virus); type: cell-based; conditions: isolates with different susceptibility to Acyclovir; pre-incubation 1 h at 37° C.
Method: (§6) The neutralising activity of FabA or IgGA was evaluated by pre-incubating (1 h at 37° C.) the IgGA with the virus and adding the IgGA/virus-mixture to cell monolayer.

HSV-1 tested isolates = test: as above; type: cell-based; conditions: isolates with different susceptibility to Acyclovir; pre-incubation 1 h at 37° C.
Method: as §6

HSV-2 [3] = test: Cell-to-cell infection inhibition (plaque areas, post-adsorption); type: cell-based; conditions: Fabs 200 ug/mL, IgGs 100 ug/mL
Method: (§7) Post post-adsorption assays have been performed in order to evaluate the contribution of IgGA in inhibiting “cell-to-cell” infection by measuring the plaque areas resulting from infected cells treated or untreated with FabA or IgGA.
(§8) Fabs tested in post-adsorption cell-to-cell infection inhibition assays have also been preliminary used at a concentration of 50 and 200 ug/mL against HSV-1 and HSV-2 tested isolates respectively*.
(§9) IgGs tested in post-adsorption “cell-to-cell” infection inhibition assays have also been preliminary used at a concentration of 25 and 100 ug/mL against HSV-1 and HSV-2 tested isolates respectively*.

HSV-1 [4] = test: as above; type: cell-based; conditions: Fabs 50 ug/mL, IgGs 25 ug/mL
Method: as §7, §8, §9

HSV infected cells = test: IIF binding assay of ScFv A; conditions: ScFv format
Method: ScFv gene of IgGA was successfully constructed and cloned into expression vector. ScFv format small scale production of IgGA was performed. The binding activity of ScFv A was evaluated by IIF assays on HSV infected cells.

O=C(O)P(=O)(O)O [FOS, Foscarnet]
activity of FOS alone against HSV-2 (HSV-2 MS): nearly ineffective

B1: IgGA: IgG1 Fab Ex2 converted into a full IgG1, identified as IgGA (antibody, V domains shown)
VH: LESGGGVVQPGRSLRLSCAASGFTFTTFAMHWVRQAPGKGLEWLAFISYDGSNKYYADSVKGRFTISRDNSKNTLYLQMNSLRAEDTSIYYCAREVWNYADYWGQGALVTVSS
VL: ELTQSPGTLSSSPGHRATLSCKASAPLGSNHMAWYQQKPGQAPRLLIYGASTRATGVPARFTGSGSGTDFTLTISSLQPEDFATYYCQQANSFPRTFGQGTKVEIK
post-adsorption inhibition of new infection events and infectious foci (plaques), HSV-2 (HSV-2 [1]): strongly inhibits
post-adsorption inhibition of new infection events and infectious foci (plaques), HSV-1 (HSV-1 [2]): strongly inhibits
generation of escape mutants under selective pressure (HSV-1 HF strain): no “escape mutants” have been generated
generation of escape mutants under selective pressure (Example 1) (HSV-1 HF strain): no “escape mutants” were generated
neutralisation of HSV-2 isolates (HSV-2 tested isolates): potently neutralises
neutralisation of HSV-1 isolates (HSV-1 tested isolates): potently neutralises
inhibition of plaque areas (cell-to-cell infection), HSV-2 (HSV-2 [3]): even higher than Fab A inhibition activity
inhibition of plaque areas (cell-to-cell infection), HSV-1 (HSV-1 [4]): even higher than Fab A inhibition activity

B2: ScFv A: single chain antibody from VL and VH of Fab A with (Gly3Ser)3 linker and His tag (protein)
scFv: ELTQSPGTLSSSPGHRATLSCKASAPLGSNHMAWYQQKPGQAPRLLIYGASTRATGVPARFTGSGSGTDFTLTISSLQPEDFATYYCQQANSFPRTFGQGTKVEIKGGGSGGGSGGGSLESGGGVVQPGRSLRLSCAASGFTFTTFAMHWVRQAPGKGLEWLAFISYDGSNKYYADSVKGRFTISRDNSKNTLYLQMNSLRAEDTSIYYCAREVWNYADYWGQGALVTVSS
modifications: left off: small tags and cut ends
notes: single chain antibody from VL and VH of Fab A with (Gly3Ser)3 linker and His tag
IIF signal and binding level (HSV infected cells): high IIF background signal and low binding
recognition of HSV infected cells in IIF (HSV infected cells): able to recognize HSV infected cells
